Measurements published in paper PMC9712583, “Time-resolved β-lactam cleavage by L1 metallo-β-lactamase” (Nature Communications, 2022).

Biological target: the molecule itself
Assay: SEC; L1 in solution; conditions not given

B1: L1 metallo-β-lactamase (MBL) from Stenotrophomonas maltophilia (enzyme)
chain: SAAEAPLPQLRAYTVDASWLQPMAPLQVADHTWQIGTEDLTALLVQTAEGAVLLDGGMPQMAGHLLDNMKLRGVAPQDLRLILLSHAHADHAGPVAELKRRTGAHVAANAETAVLLARGGSNDLHFGDGITYPPASADRIIMDGEVVTVGGIAFTAHFMPGHTPGSTAWTWTDTRDGKPVRIAYADSLSAPGYQLKGNPRYPRLIEDYKRSFATVRALPCDLLLTPHPGASNWNYAVGSKASAEALTCNAYADAAEKKFDAQLARETAGTR
notes: L1 metallo-β-lactamase, Stenotrophomonas maltophilia K279a, residues 20-290, amplified from genomic DNA and cloned into pMCSG53; Homotetramer; Active-site residue numbers in the text (H116, H118, D120 ...) appear to follow the standard MBL numbering, not the 20-290 numbering of the construct; also called L1 MBL; source: E. coli BL21 DE3 (Gold), purified (IMAC, TEV cleavage, second IMAC); not …
- stoichiometry N: 4
